B1: clone 50 (ssRNA)
RNA: GGGAGGACGAUGCGGGUGGAGUGGAGGUAUAACGGCCGGUAGCGCAUCCCACUCGGGUCUGCGGUAGACGACUCGCCCGA
modifications: 2'-NH2 C and U
B2: truncated C5 ligand (FIG. 3) (ssRNA)
RNA: GACGAUGCGGUCUCAUGCGUCGAGUGUGAGUUUACCUUCGUC
modifications: 2'-F C and U

How the values were obtained:
[1] = target: Complement C1q (Homo sapiens, UniProt P02745;P02746;P02747 P02745:23-245,P02746:28-253,P02747:29-245); test: filter; MgPBS, 37 C; still binds C1q on immune complexes; competed by SAP, beta-amyloid, CRP and A-chain 14-26 peptide; settings: tags: Quidel; chain copies: 6; label: 32P
Chain of Complement C1q (P02745 23-245, chain 1 of 3): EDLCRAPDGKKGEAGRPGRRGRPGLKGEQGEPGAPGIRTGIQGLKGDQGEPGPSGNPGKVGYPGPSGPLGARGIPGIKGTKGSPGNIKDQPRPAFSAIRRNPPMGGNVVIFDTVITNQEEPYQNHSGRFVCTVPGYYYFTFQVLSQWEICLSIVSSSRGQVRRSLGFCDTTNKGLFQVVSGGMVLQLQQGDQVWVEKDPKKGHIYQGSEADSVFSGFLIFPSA
Chain of Complement C1q (P02746 28-253, chain 2 of 3): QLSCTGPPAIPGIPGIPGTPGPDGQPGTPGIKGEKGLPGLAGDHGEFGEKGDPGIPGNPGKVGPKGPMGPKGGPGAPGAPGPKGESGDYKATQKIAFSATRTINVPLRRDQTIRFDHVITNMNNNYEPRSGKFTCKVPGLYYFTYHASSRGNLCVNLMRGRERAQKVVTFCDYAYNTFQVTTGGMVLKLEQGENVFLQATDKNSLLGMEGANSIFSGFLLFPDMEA
Chain of Complement C1q (P02747 29-245, chain 3 of 3): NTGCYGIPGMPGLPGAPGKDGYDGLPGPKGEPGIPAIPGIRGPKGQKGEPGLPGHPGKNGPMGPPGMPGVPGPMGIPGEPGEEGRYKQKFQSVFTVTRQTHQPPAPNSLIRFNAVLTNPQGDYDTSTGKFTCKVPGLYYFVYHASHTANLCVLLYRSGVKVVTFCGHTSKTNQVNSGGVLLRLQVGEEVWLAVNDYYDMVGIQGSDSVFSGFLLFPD
Description: Individual cloned DNA was T7 transcribed with α-[^32P]-ATP and the full length [^32P]-2'-NH_2-RNA or 2'-F-RNA was gel-purified (as above). RNA was suspended at approximately 5,000 cpm per 30 µl sample (<10 pM), and aliquots were incubated with various concentrations of C1q, C3 or C5 in MgPBS for 10 minutes at 37° C. Samples were then filtered through nitrocellulose, the filters washed with buffer and dried under an infrared lamp, and counted with addition of scintillation fluid (Ecoscint A, National Diagnostics, Atlanta, Ga.). A background sample of RNA alone was run in parallel. […] Filters were washed and counted.
RNA ligand binding to C1q was also measured in the presence of immune-complexes, which would block the binding of ligands to C1q head-groups. Immune complexes (IC) were formed by mixing 620 µg BSA at equivalence with 1 ml of rabbit anti-BSA (Sigma, St. Louis, Mo.) plus PEG 8000 added to 1% final concentration, and then the samples were incubated overnight at 4° C. The IC were pelleted by microfugation at 12,000 rpm for 10 minutes, washed five times with PBS, and suspended in 1 ml of MgPBS. […] Samples were incubated for 30 minutes at room temperature, microfuged, and the pellets and supernatants counted.

[2] = target: Complement C5 (Homo sapiens, UniProt P01031;P01031 P01031:19-673,P01031:678-1676); test: minimal structure from boundary analysis; called 38mer in text; settings: tags: Quidel
Chain of Complement C5 (P01031 19-673, chain 1 of 2): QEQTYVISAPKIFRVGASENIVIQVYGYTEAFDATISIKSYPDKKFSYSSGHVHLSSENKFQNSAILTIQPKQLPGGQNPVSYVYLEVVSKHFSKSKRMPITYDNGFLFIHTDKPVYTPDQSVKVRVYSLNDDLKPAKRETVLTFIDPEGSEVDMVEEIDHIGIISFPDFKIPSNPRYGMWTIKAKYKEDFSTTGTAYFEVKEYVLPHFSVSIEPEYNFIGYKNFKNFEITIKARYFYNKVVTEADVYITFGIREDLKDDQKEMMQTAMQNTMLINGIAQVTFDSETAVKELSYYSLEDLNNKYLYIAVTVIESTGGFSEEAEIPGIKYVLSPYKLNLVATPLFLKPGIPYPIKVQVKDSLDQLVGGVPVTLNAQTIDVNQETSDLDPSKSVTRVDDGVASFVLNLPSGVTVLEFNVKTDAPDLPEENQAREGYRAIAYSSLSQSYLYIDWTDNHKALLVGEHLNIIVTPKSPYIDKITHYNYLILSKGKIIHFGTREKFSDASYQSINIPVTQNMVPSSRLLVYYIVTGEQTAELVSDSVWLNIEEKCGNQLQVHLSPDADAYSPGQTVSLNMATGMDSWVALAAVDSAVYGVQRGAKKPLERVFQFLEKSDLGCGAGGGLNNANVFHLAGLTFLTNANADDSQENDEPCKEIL
Chain of Complement C5 (P01031 678-1676, chain 2 of 2): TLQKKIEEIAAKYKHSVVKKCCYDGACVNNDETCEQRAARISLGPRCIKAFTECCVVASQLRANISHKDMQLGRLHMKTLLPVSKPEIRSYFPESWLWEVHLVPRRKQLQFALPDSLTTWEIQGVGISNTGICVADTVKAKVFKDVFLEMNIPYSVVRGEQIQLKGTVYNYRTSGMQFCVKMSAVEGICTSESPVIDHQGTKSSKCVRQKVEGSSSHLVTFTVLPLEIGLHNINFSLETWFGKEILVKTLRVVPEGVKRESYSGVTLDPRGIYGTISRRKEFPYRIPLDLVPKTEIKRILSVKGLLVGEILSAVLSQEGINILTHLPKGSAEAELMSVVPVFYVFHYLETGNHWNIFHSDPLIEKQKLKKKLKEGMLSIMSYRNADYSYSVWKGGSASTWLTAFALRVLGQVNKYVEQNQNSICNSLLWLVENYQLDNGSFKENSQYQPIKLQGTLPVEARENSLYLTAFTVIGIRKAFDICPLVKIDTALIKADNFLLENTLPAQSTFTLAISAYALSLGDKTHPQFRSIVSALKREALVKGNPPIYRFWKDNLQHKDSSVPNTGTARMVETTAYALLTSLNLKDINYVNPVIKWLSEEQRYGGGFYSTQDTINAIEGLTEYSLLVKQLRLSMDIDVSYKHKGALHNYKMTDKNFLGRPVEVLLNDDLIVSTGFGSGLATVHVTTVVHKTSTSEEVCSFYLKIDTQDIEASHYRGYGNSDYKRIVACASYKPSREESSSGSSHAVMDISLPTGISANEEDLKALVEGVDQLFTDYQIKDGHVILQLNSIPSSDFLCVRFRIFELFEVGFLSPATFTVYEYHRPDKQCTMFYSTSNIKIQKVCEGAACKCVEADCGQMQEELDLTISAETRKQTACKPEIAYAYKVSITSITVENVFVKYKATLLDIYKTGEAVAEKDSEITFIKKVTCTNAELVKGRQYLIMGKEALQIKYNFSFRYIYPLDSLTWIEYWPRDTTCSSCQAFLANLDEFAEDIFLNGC
Description: A secondary structure for an inhibitory C5 Nucleic Acid Ligand as determined by current art (Green et al. (1995) Chem & Biol. 2:683) is shown in FIG. 3 (SEQ ID NO:75). The smallest structure which would bind C5 is determined by: a) radiolabeling the C5 Nucleic Acid Ligand at both the 3' and the 5' end; b) treating the labeled Nucleic Acid Ligand by partial base-hydrolyzed to split a portion of the bonds between nucleotides; c) incubating the partially hydrolyzed Nucleic Acid Ligand with C5 protein and then eluting the bound Nucleic Acid Ligand; and d) analyzing the eluted Nucleic Acid Ligand on gels. In this procedure, the Nucleic Acid Ligand initially binds to C5 as bases are removed from the Nucleic Acid Ligand. When an essential base is removed, the Nucleic Acid Ligand is no longer able to bind. This first essential base determines the boundary of the minimal Nucleic Acid Ligand structure. For a human C5 Nucleic Acid Ligand the smallest binding structure is believed to comprise the sequence with proposed base-pairing pattern shown in FIG. 3.

Row | Binder | Kd [1] | binding result [2]
1 | B1 | 0.979 nM | 
2 | B2 |  | binds

Source: patent US6140490, “High affinity nucleic acid ligands of complement system proteins” (NeXstar Pharmaceuticals, Inc.)
